From publication PMC6667474 (Scientific Reports, 2019)

Biological target: T1, Myc-IQGAP3 (human, UniProt Q86VI3 2-1631)
T1 construct: human IQGAP3 from a commercial cDNA (Dharmacon); full length IQGAP3 (corresponding to amino acids 2-1631) in pcDNA3; also called overexpressed IQGAP3; IQ3; source: HEK293, transfected, in lysate
Experiment: co-IP; HEK293 cells transfected with Myc-IQGAP3 alone or with Myc-Cdc42 (wt, Q61L or T17N); anti-IQGAP3 rabbit polyclonal antibody and Protein A-Sepharose 4 h at 4 C; lysis buffer 150 mM NaCl, 1% Triton X-100, 200 mM Tris-HCl pH 7.4; Western blot
Settings: partners not purified

T1 sequence (Q86VI3 2-1631): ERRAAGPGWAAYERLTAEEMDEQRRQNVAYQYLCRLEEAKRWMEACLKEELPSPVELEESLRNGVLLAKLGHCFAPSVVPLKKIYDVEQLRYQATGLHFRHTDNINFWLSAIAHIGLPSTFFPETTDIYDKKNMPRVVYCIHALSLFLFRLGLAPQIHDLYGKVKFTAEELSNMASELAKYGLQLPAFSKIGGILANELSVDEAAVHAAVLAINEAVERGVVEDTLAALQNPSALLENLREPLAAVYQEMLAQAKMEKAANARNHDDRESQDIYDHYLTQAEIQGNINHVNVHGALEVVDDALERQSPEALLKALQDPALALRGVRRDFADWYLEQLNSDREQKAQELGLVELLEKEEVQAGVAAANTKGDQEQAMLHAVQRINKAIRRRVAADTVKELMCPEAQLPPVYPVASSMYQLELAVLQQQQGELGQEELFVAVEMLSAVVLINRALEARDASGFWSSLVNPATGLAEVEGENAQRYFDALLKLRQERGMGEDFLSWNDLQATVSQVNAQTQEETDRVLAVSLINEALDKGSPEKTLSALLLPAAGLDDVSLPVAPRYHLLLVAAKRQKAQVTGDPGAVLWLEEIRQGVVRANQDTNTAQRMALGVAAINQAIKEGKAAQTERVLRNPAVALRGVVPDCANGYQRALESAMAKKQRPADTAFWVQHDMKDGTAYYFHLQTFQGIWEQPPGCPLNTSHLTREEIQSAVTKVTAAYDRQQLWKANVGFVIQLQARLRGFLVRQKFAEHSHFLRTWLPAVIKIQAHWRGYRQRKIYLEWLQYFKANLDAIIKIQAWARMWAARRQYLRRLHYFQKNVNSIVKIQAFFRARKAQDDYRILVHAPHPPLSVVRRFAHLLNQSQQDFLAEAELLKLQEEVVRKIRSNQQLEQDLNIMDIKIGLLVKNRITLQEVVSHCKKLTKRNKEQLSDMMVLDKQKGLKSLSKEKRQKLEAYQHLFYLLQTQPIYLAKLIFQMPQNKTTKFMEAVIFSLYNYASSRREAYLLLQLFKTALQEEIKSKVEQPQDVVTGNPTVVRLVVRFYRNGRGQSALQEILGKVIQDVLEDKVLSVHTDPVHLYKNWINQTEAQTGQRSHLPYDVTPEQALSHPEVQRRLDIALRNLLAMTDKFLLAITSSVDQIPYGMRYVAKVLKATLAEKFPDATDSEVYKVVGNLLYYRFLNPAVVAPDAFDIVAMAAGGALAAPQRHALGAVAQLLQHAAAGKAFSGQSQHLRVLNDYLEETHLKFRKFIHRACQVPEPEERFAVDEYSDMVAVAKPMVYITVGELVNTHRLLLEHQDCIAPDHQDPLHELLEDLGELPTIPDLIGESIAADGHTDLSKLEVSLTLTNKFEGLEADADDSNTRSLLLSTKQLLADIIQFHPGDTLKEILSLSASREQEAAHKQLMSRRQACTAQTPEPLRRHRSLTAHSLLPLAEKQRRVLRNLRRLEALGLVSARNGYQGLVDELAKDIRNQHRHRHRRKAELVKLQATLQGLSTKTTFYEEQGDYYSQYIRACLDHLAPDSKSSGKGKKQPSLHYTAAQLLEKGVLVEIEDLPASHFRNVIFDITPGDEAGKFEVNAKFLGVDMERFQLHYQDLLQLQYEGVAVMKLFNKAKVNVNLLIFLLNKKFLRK

B1: Myc-Cdc42 constitutively active (Q61L) (natural protein)
chain: not shown
notes: Cdc42 Q61L cut from pGEX-2T-Cdc42-Q61L and inserted into pcDNA3; also called Myc-Cdc42-Q61L; Cdc42 Q61L; source: HEK293, transfected, in lysate
fold amount co-immunoprecipitated against wild type Cdc42: 1.7 fold
